In article PMC3675495:

Molecular target: Su(Hw) (Drosophila (endogenous in embryo nuclear extract)) (UniProt P08970)
Test: co-IP

UniProt P08970, sequence (P08970 whole entry): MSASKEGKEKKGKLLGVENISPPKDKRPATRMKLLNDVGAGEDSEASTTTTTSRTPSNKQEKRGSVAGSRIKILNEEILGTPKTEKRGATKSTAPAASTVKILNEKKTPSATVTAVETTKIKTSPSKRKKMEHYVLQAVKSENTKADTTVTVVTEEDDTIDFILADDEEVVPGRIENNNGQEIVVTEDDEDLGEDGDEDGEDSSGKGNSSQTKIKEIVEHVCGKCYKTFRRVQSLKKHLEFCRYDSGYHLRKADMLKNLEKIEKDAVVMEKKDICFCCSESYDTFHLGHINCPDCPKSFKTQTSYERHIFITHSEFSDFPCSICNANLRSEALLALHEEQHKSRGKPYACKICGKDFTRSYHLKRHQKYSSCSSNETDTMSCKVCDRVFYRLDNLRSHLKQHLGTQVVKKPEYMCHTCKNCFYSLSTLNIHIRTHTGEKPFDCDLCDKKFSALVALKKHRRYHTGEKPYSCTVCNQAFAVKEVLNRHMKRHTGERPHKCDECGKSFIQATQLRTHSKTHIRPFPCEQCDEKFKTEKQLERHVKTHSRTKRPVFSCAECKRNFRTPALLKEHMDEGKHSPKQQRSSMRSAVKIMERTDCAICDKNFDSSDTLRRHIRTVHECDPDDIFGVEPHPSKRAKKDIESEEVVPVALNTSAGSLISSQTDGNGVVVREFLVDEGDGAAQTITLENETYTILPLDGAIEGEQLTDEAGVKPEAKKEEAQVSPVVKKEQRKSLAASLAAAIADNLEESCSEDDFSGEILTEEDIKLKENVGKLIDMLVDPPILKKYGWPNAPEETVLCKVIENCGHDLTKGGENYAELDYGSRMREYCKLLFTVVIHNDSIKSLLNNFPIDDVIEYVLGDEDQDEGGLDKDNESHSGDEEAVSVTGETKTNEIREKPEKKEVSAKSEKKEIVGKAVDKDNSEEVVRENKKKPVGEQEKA

percent co-precipitated: 0.5%
Substance: OSA, Q8IN94 1-2716
